Test results published in publication PMC11055803, “ANCUT1, a novel thermoalkaline cutinase from Aspergillus nidulans and its application on hydroxycinnamic acids lipophilization” (Biotechnology Letters, 2024).

System: T1, CC(=O)Oc1ccc([N+](=O)[O-])cc1
T1 construct: native secreted enzyme purified from culture broth (ammonium sulfate, ultrafiltration, continuous elution electrophoresis, renatured with Triton X-100); 22 kDa, pI 6; no glycosylation detected
Experiment: Lineweaver-Burk, p-nitrophenol release
Format: biochemical, Aspergillus nidulans
Details: Tris-HCl pH 9.0, 37 °C, substrate 0.5-2 mM
Description: Lineweaver-Burk, p-nitrophenol release on ANCUT1

Substance ANCUT1 (Aspergillus nidulans FGSC A4) has a Km of 18.29 mM, a Vmax of 58800 µM/min and a kcat of 3.67 s⁻¹. The kcat/Km was 201 M⁻¹ s⁻¹.
